Patent US20240216513A1, “FATTY ACID-BIFUNCTIONAL DEGRADER CONJUGATES AND THEIR METHODS OF USE” (Novartis AG, priority 2021, published 2024)

How the values were obtained:
[1] = BTK FAC plasma stability assay, dog plasma; assay type: in vitro ADME
[2] = BTK FAC plasma stability assay, cyno plasma; assay type: in vitro ADME, cynomolgus monkey
[3] = BTK FAC plasma stability assay, rat plasma; assay type: in vitro ADME; conditions: for Plasma stability (h) rat: incubation to 24 h
Experimental: (§1) Plasma stability was conducted in Dulbecco's PBS buffer, mouse plasma, rat plasma or human plasma frozen with K3-EDTA from BiolVT). Thawed plasma was centrifuged prior to warming for 5 minutes at 37° C. Working solutions were prepared from 10 mM DMSO solution to 500 µM in acetonitrile:water (1:1); 2 µL of working solution was added to 198 µL blank plasma or PBS and mixed manually. 4×45 µL of spiked matrix was aliquoted into glass incubation plates (96-well DW glass microplate) and sealed with blue silicon/PTFE seal; then incubated on a Thermo shaker (38° C. 300 RPM). Samples were prepared at 0, 2, 6 and 24 h timepoints, by protein precipitation with chilled acetonitrile containing internal standard Glyburide (0.2 µM). Precipitated samples were shaken for 10 minutes and stored at 4° C. until completion of the study. Following precipitation of the terminal sample, samples were frozen at −80° C. for 1 hour. Samples were then thawed prior to centrifugation (20 minutes, 4500 RPM at 4° C.). 50 µL of supernatant of each sample was transferred to 384 well analysis plate containing 30 µL of water. Semi quantitative analysis (analyte: internal standard peak area ratio) was performed by LC-MS/MS using a Sciex QTrap 5500.

[4] = BTK FAC plasma stability assay, mouse plasma; assay type: in vitro ADME; conditions: for Plasma stability (h) mouse: incubation to 24 h
Experimental: as §1

[5] = BTK FAC plasma stability assay, PBS buffer arm; assay type: physicochemical; conditions: for Plasma stability (h) PBS: incubation to 24 h
Experimental: as §1

Row | SMILES | Plasma stability (h) dog [1] | % Release of degrader after 24 h dog [1] | Plasma stability (h) cyno [2] | % Release of degrader after 24 h cyno [2] | % Release of degrader after 24 h rat [3] | Plasma stability (h) rat [3] | % Release of degrader after 24 h mouse [4] | Plasma stability (h) mouse [4] | % Release of degrader after 24 h PBS [5] | Plasma stability (h) PBS [5]
1 | CCCCCCCCCCCN(C(=O)CCCCCCCCCC(=O)O)C(CCC(=O)NCCOCCOCCOCCOCCOCCOCCOCCOCCOCCOCCOCCOCCC(=O)NCCC(=O)OC(C)(C)c1ccc(C(=O)Nc2cc(F)cc(-c3ncnc4[nH]c(-c5ccc(CCN6CCC7(CC6)CCN(C(=O)c6ccc(OC)c(N8CCC(=O)NC8=O)c6)CC7)cc5)cc34)c2C)c(F)c1)C(=O)O (centres unmarked) [Example A12, 51-Carboxy-2-(4-((3-(6-(4-(2-(9-(3-(2,4-dioxotetrahydropyrimidin-1(2H)-yl)-4-methoxybenzoyl)-3,9-diazaspiro[5.5]undecan-3-yl)ethyl)phenyl)-7H-pyrrolo[2,3-d]pyrimidin-4-yl)-5-fluoro-2-methylphenyl)carbamoyl)-3-fluorophenyl)-2-methyl-4,8,48,53-tetraoxo-52-undecyl-3,11,14,17,20,23,26,29,32,35,38,41,44-tridecaoxa-7,47,52-triazatrihexacontan-63-oic acid] | >48 h | 1.2% | 44.9 h | 0.5% | 2% | >49 h | 14.2% | 27.3 h | 0.3% | >48 h
2 | CCCCCCCCCCCN(C(=O)CCCCCCCCCC(=O)O)C(CCC(=O)NCCOCCOCCOCCOCCOCCOCCOCCOCCOCCOCCOCCOCCC(=O)N1CCN(CC(=O)OC(C)(C)c2ccc(C(=O)Nc3cc(F)cc(-c4ncnc5[nH]c(-c6ccc(CCN7CCC8(CC7)CCN(C(=O)c7ccc(OC)c(N9CCC(=O)NC9=O)c7)CC8)cc6)cc45)c3C)c(F)c2)CC1)C(=O)O (centres unmarked) [Example A22, 44-Carboxy-1-(4-(2-((2-(4-((3-(6-(4-(2-(9-(3-(2,4-dioxotetrahydropyrimidin-1(2H)-yl)-4-methoxybenzoyl)-3,9-diazaspiro[5.5]undecan-3-yl)ethyl)phenyl)-7H-pyrrolo[2,3-d]pyrimidin-4-yl)-5-fluoro-2-methylphenyl)carbamoyl)-3-fluorophenyl)propan-2-yl)oxy)-2-oxoethyl)piperazin-1-yl)-1,41,46-trioxo-45-undecyl-4,7,10,13,16,19,22,25,28,31,34,37-dodecaoxa-40,45-diazahexapentacontan-56-oic acid] | >48 h | 1.6% | >48 h | 1.2% | 1.4% | >48 h | 2.3% | >48 h | 1.3% | >48 h
3 | CCCCCCCCCCCN(C(=O)CCCCCCCCCC(=O)O)[C@@H](CCC(=O)NCCOCCOCCOCCOCCOCCOCCOCCOCCOCCOCCOCCOCCC(=O)NCCCC(=O)OC(C)(C)c1ccc(C(=O)Nc2cc(F)cc(-c3ncnc4[nH]c(-c5ccc(CCN6CCC7(CC6)CCN(C(=O)c6ccc(OC)c(N8CCC(=O)NC8=O)c6)CC7)cc5)cc34)c2C)c(F)c1)C(=O)O [Example A27, (S)-52-Carboxy-2-(4-((3-(6-(4-(2-(9-(3-(2,4-dioxotetrahydropyrimidin-1(2H)-yl)-4-methoxybenzoyl)-3,9-diazaspiro[5.5]undecan-3-yl)ethyl)phenyl)-7H-pyrrolo[2,3-d]pyrimidin-4-yl)-5-fluoro-2-methylphenyl)carbamoyl)-3-fluorophenyl)-2-methyl-4,9,49,54-tetraoxo-53-undecyl-3,12,15,18,21,24,27,30,33,36,39,42,45-tridecaoxa-8,48,53-triazatetrahexacontan-64-oic acid] | >48 h | 0.5% | 26.6 h | 0.4% | 2% | – | 13.7% | 28.6 h | 0.3% | >48 h
4 | CCCCCCCCCCCN(C(=O)CCCCCCCCCC(=O)O)C(CCC(=O)NCCOCCOCCOCCOCCOCCOCCOCCOCCOCCOCCOCCOCCC(=O)NCc1ccc(C(=O)OC(C)(C)c2ccc(C(=O)Nc3cc(F)cc(-c4ncnc5[nH]c(-c6ccc(CCN7CCC8(CC7)CCN(C(=O)c7ccc(OC)c(N9CCC(=O)NC9=O)c7)CC8)cc6)cc45)c3C)c(F)c2)cn1)C(=O)O (centres unmarked) [Example A25, 46-Carboxy-1-(5-(((2-(4-((3-(6-(4-(2-(9-(3-(2,4-dioxotetrahydropyrimidin-1(2H)-yl)-4-methoxybenzoyl)-3,9-diazaspiro[5.5]undecan-3-yl)ethyl)phenyl)-7H-pyrrolo[2,3-d]pyrimidin-4-yl)-5-fluoro-2-methylphenyl)carbamoyl)-3-fluorophenyl)propan-2-yl)oxy)carbonyl)pyridin-2-yl)-3,43,48-trioxo-47-undecyl-6,9,12,15,18,21,24,27,30,33,36,39-dodecaoxa-2,42,47-triazaoctapentacontan-58-oic acid] | >48 h | 1.1% | >48 h | 1.1% | 1.5% | 35.7 h | 20.9% | 17.8 h | 2.2% | >48 h
5 | COCCOCCOCCOCCOCCOCCOCCOCCOCCOCCOCCOCCC(=O)NCC(=O)OC(C)(C)c1ccc(C(=O)Nc2cc(F)cc(-c3ncnc4[nH]c(-c5ccc(CCN6CCC7(CC6)CCN(C(=O)c6ccc(OC)c(N8CCC(=O)NC8=O)c6)CC7)cc5)cc34)c2C)c(F)c1 [Example A34, 2-(4-((3-(6-(4-(2-(9-(3-(2,4-Dioxotetrahydropyrimidin-1(2H)-yl)-4-methoxybenzoyl)-3,9-diazaspiro[5.5]undecan-3-yl)ethyl)phenyl)-7H-pyrrolo[2,3-d]pyrimidin-4-yl)-5-fluoro-2-methylphenyl)carbamoyl)-3-fluorophenyl)propan-2-yl (2,5,8,11,14,17,20,23,26,29,32,35-dodecaoxaoctatriacontan-38-oyl)glycinate] | >48 h | 5.3% | 30.6 h | 13.9% | 42.2% | 5.3 h | 26.2% | 6.8 h | 5.2% | >48 h
6 | CCCCCCCCCCCN(C(=O)CCCCCCCCCC(=O)O)C(CCC(=O)NCCOCCOCCOCCOCCOCCOCCOCCOCCOCCOCCOCCOCCOCCOCCOCCOCCC(=O)NCC(=O)OC(C)(C)c1ccc(C(=O)Nc2cc(F)cc(-c3ncnc4[nH]c(-c5ccc(CCN6CCC7(CC6)CCN(C(=O)c6ccc(OC)c(N8CCC(=O)NC8=O)c6)CC7)cc5)cc34)c2C)c(F)c1)C(=O)O (centres unmarked) [Example A9, 62-Carboxy-2-(4-((3-(6-(4-(2-(9-(3-(2,4-dioxotetrahydropyrimidin-(2H)-yl)-4-methoxybenzoyl)-3,9-diazaspiro[5.5]undecan-3-yl)ethyl)phenyl)-7H-pyrrolo[2,3-d]pyrimidin-4-yl)-5-fluoro-2-methylphenyl)carbamoyl)-3-fluorophenyl)-2-methyl-4,7,59,64-tetraoxo-63-undecyl-3,10,13,16,19,22,25,28,31,34,37,40,43,46,49,52,55-heptadecaoxa-6,58,63-triazatetraheptacontan-74-oic acid] | >48 h | 5.7% | 30.8 h | 3.7% | 22.4% | 6.8 h | 15.6% | 4.6 h | 1.2% | >48 h
